*1 amine or outer side, *2 acyl side, *3 side chain or, on linkers, in order; H or OH if unused. Where no end group is shown, it is not given here. Side-chain parts run from the residue outwards. [ ]: non-standard residue; d: D form. The star is where a group is joined. Decanoyl(10-(4-HOOC-PhO)) = O=C(O)c1ccc(OCCCCCCCCCC(=O)*)cc1; C16 diacid = O=C(O)CCCCCCCCCCCCCCC(=O)*; γGlu = O=C(O)[C@H](CCC(=O)[*:2])N[*:1]; Desaminohistidyl = O=C(CCc1c[nH]cn1)*; C12 diacid = O=C(O)CCCCCCCCCCC(=O)*; 13‑carboxytridecanoyl = C14 diacid; AEEA = NCCOCCOCC(=O)O; Aib = CC(C)(N)C(=O)O
What follows are binders tested against T1, human GLP-1 receptor (human, UniProt P43220 24-463) (assay: SPA, displacement of 125I-GLP-1(7-36)NH2, 0.005% HSA).
T1 construct: whole, on cells; Used as purified membranes of the transfected hamster cells, not whole cells; also called hGLP-1
In the case of H[Aib]EGTFTSDVSK([AEEA-AEEA-γGlu-13‑carboxytridecanoyl])YLEEQAVREFIAK([AEEA-AEEA-γGlu-13‑carboxytridecanoyl])LVG [GLP-1 derivative of Example 5: [Aib8,Lys18,Glu22,Val25,Arg26,Lys31,Gly34]-GLP-1-(7-34)-peptide], the IC50 is reported as < 1000 nM.
With H[Aib]EGTFTSDVSK([AEEA-AEEA-γGlu-C12 diacid])YLEEQAVRK([AEEA-AEEA-γGlu-C12 diacid])FIAHLVG the IC50 was < 1000 nM.
With H[Aib]EGTFTSDVSK([AEEA-AEEA-γGlu-13‑carboxytridecanoyl])YLEEQAVRHFIAK([AEEA-AEEA-γGlu-13‑carboxytridecanoyl])LVG the IC50 was < 1000 nM.
For H[Aib]EGTFTSDVSK([AEEA-AEEA-γGlu-13‑carboxytridecanoyl])YLEEQAAREFIAK([AEEA-AEEA-γGlu-13‑carboxytridecanoyl])LVG [GLP-1 derivative of Example 16: [Aib8,Lys18,Glu22,Arg26,Lys31,Gly34]-GLP-1-(7-34)-peptide], the IC50 was < 1000 nM.
In the case of H[Aib]EGTFTSDVSK([AEEA-AEEA-γGlu-13‑carboxytridecanoyl])YLEEQAVRK([AEEA-AEEA-γGlu-13‑carboxytridecanoyl])FIAHLVG, the IC50 is reported as < 1000 nM.
In the case of H[Aib]EGTFTSDVSK([AEEA-AEEA-γGlu-C12 diacid])YLEEQAVHEFIAK([AEEA-AEEA-γGlu-C12 diacid])LVG [GLP-1 derivative of Example 27: [Aib8,Lys18,Glu22,Val25,His26,Lys31,Gly34]-GLP-1-(7-34)-peptide], the IC50 is reported as < 1000 nM.
With H[Aib]EGTFTSDVSK([AEEA-AEEA-γGlu-13‑carboxytridecanoyl])YLEEQAVHEFIAK([AEEA-AEEA-γGlu-13‑carboxytridecanoyl])LVG [GLP-1 derivative of Example 7: [Aib8,Lys18,Glu22,Val25,His26,Lys31,Gly34]-GLP-1-(7-34)-peptide] the IC50 was < 1000 nM.
In the case of H[Aib]EGTFTSDVSK([AEEA-AEEA-γGlu-13‑carboxytridecanoyl])YLEERAVREFIAK([AEEA-AEEA-γGlu-13‑carboxytridecanoyl])LVG, the IC50 is reported as < 1000 nM.
H[Aib]EGTFTSDVSK([AEEA-AEEA-γGlu-13‑carboxytridecanoyl])YLEEQAVREFIEK([AEEA-AEEA-γGlu-13‑carboxytridecanoyl])LVG [GLP-1 derivative of Example 6: [Aib8,Lys18,Glu22,Val25,Arg26,Glu30,Lys31,Gly34]-GLP-1-(7-34)-peptide] was tested, and the IC50 was < 1000 nM.
With [Desaminohistidyl]AEGTFTSDVSK([AEEA-AEEA-13‑carboxytridecanoyl])YLEEQAARK([AEEA-AEEA-13‑carboxytridecanoyl])FIAHLVG [GLP-1 derivative of Example 31: [Imp7,Lys18,Glu22,Arg26,Lys27,His31,Gly34]-GLP-1-(7-34)-peptide] the IC50 was < 1000 nM.
With H[Aib]EGTFTSDVSK([AEEA-AEEA-γGlu-C16 diacid])YLEEQAAK([AEEA-AEEA-γGlu-C16 diacid])EFIAWLVQGRG [GLP-1 derivative of Example 143: [Aib8,Lys18,Glu22,Gln34]-GLP-1-(7-37)-peptide] the IC50 was < 1000 nM.
H[Aib]EGTFTSDVSK([γGlu-AEEA-AEEA-13‑carboxytridecanoyl])YLEEQAVREFIAK([γGlu-AEEA-AEEA-13‑carboxytridecanoyl])LVG [GLP-1 derivative of Example 36: [Aib8,Lys18,Glu22,Val25,Arg26,Lys31,Gly34]-GLP-1-(7-34)-peptide] was tested, and the IC50 was < 1000 nM.
For [Desaminohistidyl]AEGTFTSDVSK([AEEA-AEEA-γGlu-Decanoyl(10-(4-HOOC-PhO))])YLEEQAAREFIAWLVRGRK([AEEA-AEEA-γGlu-Decanoyl(10-(4-HOOC-PhO))]) [GLP-1 derivative of Example 4: [Imp7,Lys18,Glu22,Arg26,Arg34,Lys37]-GLP-1-(7-37)-peptide], the IC50 was < 1000 nM.
[Desaminohistidyl]AEGTFTSDVSK([AEEA-AEEA-γGlu-C16 diacid])YLEEQAARK([AEEA-AEEA-γGlu-C16 diacid])FIAWLVQGRG [GLP-1 derivative of Example 147: [Imp7,Lys18,Glu22,Arg26,Lys27,Gln34]-GLP-1-(7-37)-peptide] was tested, and the IC50 was < 1000 nM.
In the case of [Desaminohistidyl][Aib]EGTFTSDVSK([AEEA-AEEA-γGlu-13‑carboxytridecanoyl])YLEEQAVREFIAK([AEEA-AEEA-γGlu-13‑carboxytridecanoyl])LVG [GLP-1 derivative of Example 21: [Imp7,Aib8,Lys18,Glu22,Val25,Arg26,Lys31,Gly34]-GLP-1-(7-34)-peptide], the IC50 is reported as < 1000 nM.

The binders below were run against T1, human GLP-1 receptor (assay: SPA, 2.0% vs 0.005% HSA).
H[Aib]EGTFTSDVSK([AEEA-AEEA-γGlu-13‑carboxytridecanoyl])YLEEQAVREFIAK([AEEA-AEEA-γGlu-13‑carboxytridecanoyl])LVG [GLP-1 derivative of Example 5: [Aib8,Lys18,Glu22,Val25,Arg26,Lys31,Gly34]-GLP-1-(7-34)-peptide] was tested, and the “ratio IC50 high HSA/IC50 low HSA” value was > 1.
H[Aib]EGTFTSDVSK([AEEA-AEEA-γGlu-C12 diacid])YLEEQAVRK([AEEA-AEEA-γGlu-C12 diacid])FIAHLVG was tested, and the “ratio IC50 high HSA/IC50 low HSA” value was > 1.
For H[Aib]EGTFTSDVSK([AEEA-AEEA-γGlu-13‑carboxytridecanoyl])YLEEQAVRHFIAK([AEEA-AEEA-γGlu-13‑carboxytridecanoyl])LVG, the “ratio IC50 high HSA/IC50 low HSA” value was > 1.
For H[Aib]EGTFTSDVSK([AEEA-AEEA-γGlu-13‑carboxytridecanoyl])YLEEQAAREFIAK([AEEA-AEEA-γGlu-13‑carboxytridecanoyl])LVG [GLP-1 derivative of Example 16: [Aib8,Lys18,Glu22,Arg26,Lys31,Gly34]-GLP-1-(7-34)-peptide], the “ratio IC50 high HSA/IC50 low HSA” value was > 1.
For H[Aib]EGTFTSDVSK([AEEA-AEEA-γGlu-13‑carboxytridecanoyl])YLEEQAVRK([AEEA-AEEA-γGlu-13‑carboxytridecanoyl])FIAHLVG, the “ratio IC50 high HSA/IC50 low HSA” value was > 1.
H[Aib]EGTFTSDVSK([AEEA-AEEA-γGlu-C12 diacid])YLEEQAVHEFIAK([AEEA-AEEA-γGlu-C12 diacid])LVG [GLP-1 derivative of Example 27: [Aib8,Lys18,Glu22,Val25,His26,Lys31,Gly34]-GLP-1-(7-34)-peptide] was tested, and the “ratio IC50 high HSA/IC50 low HSA” value was > 1.
In the case of H[Aib]EGTFTSDVSK([AEEA-AEEA-γGlu-13‑carboxytridecanoyl])YLEEQAVHEFIAK([AEEA-AEEA-γGlu-13‑carboxytridecanoyl])LVG [GLP-1 derivative of Example 7: [Aib8,Lys18,Glu22,Val25,His26,Lys31,Gly34]-GLP-1-(7-34)-peptide], the “ratio IC50 high HSA/IC50 low HSA” value is reported as > 1.
H[Aib]EGTFTSDVSK([AEEA-AEEA-γGlu-13‑carboxytridecanoyl])YLEERAVREFIAK([AEEA-AEEA-γGlu-13‑carboxytridecanoyl])LVG was tested, and the “ratio IC50 high HSA/IC50 low HSA” value was > 1.
In the case of H[Aib]EGTFTSDVSK([AEEA-AEEA-γGlu-13‑carboxytridecanoyl])YLEEQAVREFIEK([AEEA-AEEA-γGlu-13‑carboxytridecanoyl])LVG [GLP-1 derivative of Example 6: [Aib8,Lys18,Glu22,Val25,Arg26,Glu30,Lys31,Gly34]-GLP-1-(7-34)-peptide], the “ratio IC50 high HSA/IC50 low HSA” value is reported as > 1.
With [Desaminohistidyl]AEGTFTSDVSK([AEEA-AEEA-13‑carboxytridecanoyl])YLEEQAARK([AEEA-AEEA-13‑carboxytridecanoyl])FIAHLVG [GLP-1 derivative of Example 31: [Imp7,Lys18,Glu22,Arg26,Lys27,His31,Gly34]-GLP-1-(7-34)-peptide] the “ratio IC50 high HSA/IC50 low HSA” value was > 1.
For H[Aib]EGTFTSDVSK([AEEA-AEEA-γGlu-C16 diacid])YLEEQAAK([AEEA-AEEA-γGlu-C16 diacid])EFIAWLVQGRG [GLP-1 derivative of Example 143: [Aib8,Lys18,Glu22,Gln34]-GLP-1-(7-37)-peptide], the “ratio IC50 high HSA/IC50 low HSA” value was > 1.
With H[Aib]EGTFTSDVSK([γGlu-AEEA-AEEA-13‑carboxytridecanoyl])YLEEQAVREFIAK([γGlu-AEEA-AEEA-13‑carboxytridecanoyl])LVG [GLP-1 derivative of Example 36: [Aib8,Lys18,Glu22,Val25,Arg26,Lys31,Gly34]-GLP-1-(7-34)-peptide] the “ratio IC50 high HSA/IC50 low HSA” value was > 1.
For [Desaminohistidyl]AEGTFTSDVSK([AEEA-AEEA-γGlu-Decanoyl(10-(4-HOOC-PhO))])YLEEQAAREFIAWLVRGRK([AEEA-AEEA-γGlu-Decanoyl(10-(4-HOOC-PhO))]) [GLP-1 derivative of Example 4: [Imp7,Lys18,Glu22,Arg26,Arg34,Lys37]-GLP-1-(7-37)-peptide], the “ratio IC50 high HSA/IC50 low HSA” value was > 1.
[Desaminohistidyl]AEGTFTSDVSK([AEEA-AEEA-γGlu-C16 diacid])YLEEQAARK([AEEA-AEEA-γGlu-C16 diacid])FIAWLVQGRG [GLP-1 derivative of Example 147: [Imp7,Lys18,Glu22,Arg26,Lys27,Gln34]-GLP-1-(7-37)-peptide] was tested, and the “ratio IC50 high HSA/IC50 low HSA” value was > 1.
With [Desaminohistidyl][Aib]EGTFTSDVSK([AEEA-AEEA-γGlu-13‑carboxytridecanoyl])YLEEQAVREFIAK([AEEA-AEEA-γGlu-13‑carboxytridecanoyl])LVG [GLP-1 derivative of Example 21: [Imp7,Aib8,Lys18,Glu22,Val25,Arg26,Lys31,Gly34]-GLP-1-(7-34)-peptide] the “ratio IC50 high HSA/IC50 low HSA” value was > 1.
